# Measurements reported in article PMC11480844 (2024).
# B1: H2-Kb / Ed33 (parent complex)
# chain 1: SQLAEENSWALSVHEGESVTVNCSYKTSITALQWYRQKSGKGPAQLILIRSNEREKRNGRLRATLDTSSQSSSLSITATRCEDTAVYFCATDHNNAGAKLTFGGGTRLTVRP
# chain 2: DAGVTQTPRHEVAEKGQTIILKCEPVSGHNDLFWYRQTKIQGLELLSYFRSKSLMEDGGAFKDRFKAEMLNSSFSTLKIQPTEPKDSAVYLCASSLYTNQAPLFGEGTRLSVL
# chain 3: not shown
# chain 4: IQKTPQIQVYSRHPPENGKPNILNCYVTQFHPPHIEIQMLKNGKKIPKVEMSDMSFSKDWSFYILAHTEFTPTETDTYACRVKHDSMAEPKTVYWDRDM
# chain 5: SIINFEKL
# B2: H2-Kb / Ed40 (parent complex)
# chain 1: GDSVTQTEGPVTVSESESLIINCTYSATSIAYPNLFWYVRYPGEGLQLLLKVITAGQKGSSRGFEATYNKETTSFHLQKASVQESDSAVYYCALGDGYTGNYKYVFGAGTRLKVIA
# chain 2: DSGVVQSPRHIIKEKGGRSVLTCIPISGHSNVVWYQQTLGKELKFLIQHYEKVERDKGFLPSRFSVQQFDDYHSEMNMSALELEDSAMYFCASSGASAETLYFGSGTRLTVL
# chain 3: not shown
# chain 4: B1 chain 4
# chain 5: SIINFEKL
# Variants of: B1
# Experiment: % of reporter cells activated (NFAT-GFP), raw
# Note: test concentration or dose not given here.
row,Variant,ratio to parent
1,chain 5 E6D,0.113
2,chain 5 E6L,0.00458
3,chain 5 E6Q,0.218
4,chain 5 E6K,0.425
5,chain 5 E6G,0.513
6,chain 5 N4Y,0.0163
7,chain 5 N4R,0.168
8,chain 5 N4Q,0.00449
9,chain 5 N4H,0.134
10,chain 5 N4A,0.00624
11,chain 5 N4I,0.271
12,chain 5 N4E,0.246
13,chain 5 N4T,0.0148
14,chain 5 N4K,0.41
15,chain 5 I3C,1.02
16,chain 5 I3G,1.03
17,chain 5 I3A,1.03
18,chain 5 I3L,0.984
19,chain 5 I3P,1.09
20,chain 5 I3K,0.656
21,chain 5 I3F,0.0275
22,chain 5 I3N,0.932
23,chain 5 K7H,0.0435
24,chain 5 K7L,0.0519
25,chain 5 K7D,0.0503

row,Variant,ratio to parent
1,chain 5 K7T,0.0585
2,chain 5 K7G,0.204
3,chain 5 L8R,0.873
4,chain 5 L8A,0.913
5,chain 5 L8M,0.936
6,chain 5 L8V,0.815
7,chain 5 L8C,0.824
8,chain 5 L8G,0.87
9,chain 5 S1R,0.392
10,chain 5 S1T,0.61
11,chain 5 S1L,0.0492
12,chain 5 S1C,0.295
13,chain 5 S1Y,0.414
14,chain 5 F5Y,1.04
15,chain 5 F5M,1.09
16,chain 5 F5W,0.968
17,chain 5 F5S,0.958
18,chain 5 F5A,1.1
19,chain 5 F5L,0.916
20,chain 5 F5P,0.988
21,chain 5 F5V,0.917
22,chain 5 I2Q,0.918
23,chain 5 I2H,0.835
24,chain 5 I2M,1.08
25,chain 5 I2A,0.885

# Second part, the variant after the results:
row,ratio to parent,Variant
1,0.0145,chain 5 E6T
2,0.0699,chain 5 E6S
3,0.055,chain 5 E6A
4,0.00689,chain 5 E6I
5,0.00151,chain 5 N4M
6,0.0116,chain 5 N4W
7,0.00273,chain 5 N4S
8,0.181,chain 5 N4V
9,0.294,chain 5 N4G
10,0.581,chain 5 I3R
11,0.0463,chain 5 I3Y
12,1.01,chain 5 I3S
13,0.933,chain 5 I3V
14,1.06,chain 5 I3E
15,0.836,chain 5 I3W
16,1.08,chain 5 I3Q
17,0.318,chain 5 K7R
18,0.063,chain 5 K7C
19,0.0117,chain 5 K7E
20,0.216,chain 5 K7N
21,0.8,chain 5 L8E
22,0.988,chain 5 L8I
23,0.9,chain 5 L8Q

row,ratio to parent,Variant
1,0.941,chain 5 L8F
2,0.929,chain 5 L8T
3,0.84,chain 5 L8S
4,0.115,chain 5 S1P
5,0.3,chain 5 S1F
6,0.675,chain 5 S1M
7,0.461,chain 5 S1A
8,1.02,chain 5 S1E
9,0.349,chain 5 S1V
10,0.0715,chain 5 S1I
11,0.911,chain 5 F5H
12,0.655,chain 5 F5I
13,0.85,chain 5 F5D
14,1.08,chain 5 F5T
15,0.456,chain 5 I2G
16,0.738,chain 5 I2W
17,1.01,chain 5 I2K
18,1.03,chain 5 I2P
19,0.715,chain 5 I2Y
20,0.918,chain 5 I2C
21,1.03,chain 5 I2E
22,0.691,chain 5 I2S

# Variants of: B2
# Experiment: % of reporter cells activated (NFAT-GFP), raw
row,Variant,ratio to parent
1,chain 5 I3E,0.545
2,chain 5 I3K,0.791
3,chain 5 I3S,0.789
4,chain 5 I3P,0.601
5,chain 5 K7G,0.382
6,chain 5 K7Q,0.121
7,chain 5 K7H,0.754
8,chain 5 K7Y,0.444
9,chain 5 K7N,0.163
10,chain 5 S1H,0.914
11,chain 5 S1A,1.01
12,chain 5 F5V,0.868
13,chain 5 F5G,0.78
14,chain 5 F5C,1.01
15,chain 5 F5P,0.944
16,chain 5 N4Q,0.00152
17,chain 5 N4V,0.00392
18,chain 5 N4K,0.0365

row,Variant,ratio to parent
1,chain 5 I2D,1.2
2,chain 5 I2W,0.654
3,chain 5 I2H,0.7
4,chain 5 I2K,0.968
5,chain 5 I2F,1
6,chain 5 I2Y,0.834
7,chain 5 L8R,0.785
8,chain 5 L8C,0.555
9,chain 5 L8N,0.645
10,chain 5 L8I,0.95
11,chain 5 L8K,0.816
12,chain 5 E6K,0.634
13,chain 5 E6T,0.0789
14,chain 5 E6D,0.844
15,chain 5 E6Y,0.0704
16,chain 5 E6S,0.162
17,chain 5 E6L,0.11

# Results, then the variant that gave them:
row,ratio to parent,Variant
1,0.28,chain 5 I3A
2,0.67,chain 5 I3H
3,0.0448,chain 5 K7C
4,0.597,chain 5 S1I
5,0.532,chain 5 S1R
6,0.92,chain 5 S1T
7,0.993,chain 5 S1M
8,1.06,chain 5 F5H
9,0.944,chain 5 F5A
10,1.11,chain 5 F5Y
11,0.856,chain 5 F5M
12,1.22,chain 5 F5T
13,1.07,chain 5 I2P
14,0.913,chain 5 I2M
15,1.02,chain 5 I2C
16,0.681,chain 5 L8S
17,0.787,chain 5 L8W
18,0.816,chain 5 L8A
19,0.172,chain 5 E6M
20,0.00511,chain 5 E6V
